Among the data in patent US20230174623A1 are decrease in solution concentration (LAIR depleted from the bath) and uptake into the tumor matrix (LAIR binding sites of a tumor) values, retold here.

The target of the test is collagen within the matrix fraction of excised B16F10 tumors. The experiment in a line: depletion of AF647-LAIR fluorescence from solution by the B16F10 tumor matrix fraction, at steady state.

In the case of AF647-labeled LAIR, the decrease in solution concentration (LAIR depleted from the bath) was 20%.
Consider AF647-labeled LAIR (receptor), for which the uptake into the tumor matrix (LAIR binding sites of a tumor) was 0.2 nmol.
